For experiment [1], the target named is P17-Fc fusion protein (human CD40 extracellular domain fused to human IgG1 Fc) (human) (UniProt P25942). As to the kind of experiment: ELISA on P17-Fc, positive control.
Experiment [2] has the same target. As to the kind of experiment: ELISA, P17-Fc against titrated antibody. On the technique in general: ELISA stands for enzyme-linked immunosorbent assay.
The target of experiment [3] is biotinylated P17-Fc fusion protein (human) (UniProt P25942). As to the kind of experiment: ELISA, biotinylated P17-Fc against titrated antibody.
Chain of biotinylated P17-Fc fusion protein (human) (P25942 21-193 limits assumed): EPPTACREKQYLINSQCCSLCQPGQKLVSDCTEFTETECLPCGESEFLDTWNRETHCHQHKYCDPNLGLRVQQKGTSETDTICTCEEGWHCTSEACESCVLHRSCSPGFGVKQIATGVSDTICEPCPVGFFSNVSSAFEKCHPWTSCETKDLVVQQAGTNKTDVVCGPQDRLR
Experiment [4] addresses P17-Fc fusion protein (human CD40 extracellular domain fused to human IgG1 Fc) (human) (UniProt P25942). In words: ELISA, unbiotinylated P17-Fc against titrated antibody.
Experiment [5] addresses human CD40 expressed on the cell surface (human) (UniProt P25942). In words: flow cytometry on CHO-K-huCD40 cells, APC anti-human IgG Fc secondary antibody. (In flow cytometry, cells or beads pass a laser one at a time.)
Experiment [6] shares this target. In words: blocking assay by flow cytometry: CHO-K-huCD40 cells with titrated antibody, then CD40L-biotin (200 ng/mL) and PE-streptavidin; blocked ligand CD40L.

Chain of P17-Fc fusion protein (human CD40 extracellular domain fused to human IgG1 Fc) (human) (P25942 21-193 limits assumed): as above
Chain of human CD40 expressed on the cell surface (human) (P25942 21-277): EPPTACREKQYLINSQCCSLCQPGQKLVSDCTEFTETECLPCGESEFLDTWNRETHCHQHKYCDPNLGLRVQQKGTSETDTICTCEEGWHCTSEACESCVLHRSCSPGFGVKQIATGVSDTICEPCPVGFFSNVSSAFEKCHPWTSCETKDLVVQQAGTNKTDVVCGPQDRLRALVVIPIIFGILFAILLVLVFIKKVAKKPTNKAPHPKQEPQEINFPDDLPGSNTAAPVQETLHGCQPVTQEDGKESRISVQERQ

B1: Bleslumab (antibody, INN chains, looked up, V domains shown)
VH: QLQLQESGPGLLKPSETLSLTCTVSGGSISSPGYYGGWIRQPPGKGLEWIGSIYKSGSTYHNPSLKSRVTISVDTSKNQFSLKLSSVTAADTAVYYCTRPVVRYFGWFDPWGQGTLVTVSS
VL: AIQLTQSPSSLSASVGDRVTITCRASQGISSALAWYQQKPGKAPKLLIYDASNLESGVPSRFSGSGSGTDFTLTISSLQPEDFATYYCQQFNSYPTFGQGTKVEIK
With B1, the EC50 – broadly, the concentration giving half of the maximal effect – in experiment [1] stood at 0.047 µg/mL. Besides, the EC50 (read off the curve) – broadly, the concentration giving half of the maximal effect – in experiment [2] turned out to be 0.2 µg/mL; in experiment [3], 0.08 µg/mL; in experiment [4] it was 0.08 µg/mL; in experiment [5], 0.7 µg/mL. In experiment [6], this molecule had an IC50 (read off the curve) of 1 µg/mL.

B2: Dacetuzumab (antibody, INN chains, looked up, V domains shown)
VH: EVQLVESGGGLVQPGGSLRLSCAASGYSFTGYYIHWVRQAPGKGLEWVARVIPNAGGTSYNQKFKGRFTLSVDNSKNTAYLQMNSLRAEDTAVYYCAREGIYWWGQGTLVTVSS
VL: DIQMTQSPSSLSASVGDRVTITCRSSQSLVHSNGNTFLHWYQQKPGKAPKLLIYTVSNRFSGVPSRFSGSGSGTDFTLTISSLQPEDFATYFCSQTTHVPWTFGQGTKVEIKR
B2: the EC50 (read off the curve) in experiment [2] was determined as 0.3 µg/mL; in experiment [3] it was 0.08 µg/mL; in experiment [4], 0.08 µg/mL.

The values are drawn from patent publication US20240218071A1.
